Test results reported in PMC9187738, “Live imaging-based assay for visualising species-specific interactions in gamete adhesion molecules” (Scientific Reports, 2022).

T1: mouse mCherry-JUNO (mouse, UniProt Q9EQF4 20-222)
T1 construct: JUNO, mouse; CDS amplified from mouse cDNA; also called mouse JUNO; source: BHK-21 cells, transfected, on cells (mifepristone-inducible or cytomegalovirus promoter); also HEK293T cells, transfected, on cells; not shown: mCherry, internal (just after the signal peptide), kept
T1 sequence (looked up): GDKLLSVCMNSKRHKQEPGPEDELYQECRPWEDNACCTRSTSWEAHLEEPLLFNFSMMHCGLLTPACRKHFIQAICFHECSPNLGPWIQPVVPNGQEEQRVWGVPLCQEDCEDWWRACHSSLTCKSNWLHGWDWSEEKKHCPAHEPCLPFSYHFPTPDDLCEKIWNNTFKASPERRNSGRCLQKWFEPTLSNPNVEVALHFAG

B1: human IZUMO1 (natural protein, UniProt Q8IYV9 22-350, looked up)
chain: CVICDPSVVLALKSLEKDYLPGHLDAKHHKAMMERVENAVKDFQELSLNEDAYMGVVDEATLQKGSWSLLKDLKRITDSDVKGDLFVKELFWMLHLQKETFATYVARFQKEAYCPNKCGVMLQTLIWCKNCKKEVHACRKSYDCGERNVEVPQMEDMILDCELNWHQASEGLTDYSFYRVWGNNTETLVSKGKEATLTKPMVGPEDAGSYRCELGSVNSSPATIINFHVTVLPKMIKEEKPSPNIVTPGEATTESSISLQPLQPEKMLASRLLGLLICGSLALITGLTFAIFRRRKVIDFIKSSLFGLGSGAAEQTQVPKEKATDSRQQ
notes: IZUMO1, human; gene synthesised artificially (Integrated DNA technologies); also called IZUMO1 Human; source: BHK-21 cells, transfected, on cells; also HEK293T cells, transfected, on cells; not shown: Venus or mTurquoise2, C-terminal, kept
B2: mouse IZUMO1-Venus (natural protein, UniProt Q9D9J7 22-397, looked up)
chain: CIKCDQFVTDALKTFENTYLNDHLPHDIHKNVMRMVNHEVSSFGVVTSAEDSYLGAVDENTLEQATWSFLKDLKRITDSDLKGELFIKELLWMLRHQKDIFNNLARQFQKEVLCPNKCGVMSQTLIWCLKCEKQLHICRKSLDCGERHIEVHRSEDLVLDCLLSWHRASKGLTDYSFYRVWENSSETLIAKGKEPYLTKSMVGPEDAGNYRCVLDTINQGHATVIRYDVTVLPPKHSEENQPPNIITQEEHETPVHVTPQTPPGQEPESELYPELHPELYPELIPTVAQNPEKKMKTRLLILLTLGFVVLVASIIISVLHFRKVSAKLKNASDEVKPTASGSKSDQSLSQQMGLKKASQADFNSDYSGDKSEATEN
notes: IZUMO1, mouse; CDS amplified from mouse cDNA; The methods say Venus or mTurquoise2 for IZUMO1, SPACA6 and CD9; the parent of the W148A mutant is named IZUMO-Venus; also called IZUMO-Venus; source: BHK-21 cells, transfected, on cells (mifepristone-inducible or cytomegalovirus promoter); also HEK293T cells, transfected, on cells; not shown: Venus, C-terminal, kept

Legend:
human JUNO = target: T2, human JUNO (human, UniProt A6ND01 20-228); experiment: live imaging-based adhesion molecule (LIAM) assay; BHK cells, non-inducible expression (cytomegalovirus promoter); separately transfected cells mixed in equal amounts 4 h after transfection, incubated 20 h, imaged every 6 min for 12 h at 40x, 37 °C, 5% CO2; read-outs: accumulation at the cell interface and translocation to the opposite cell, % of contacting cell pairs; settings: partners not purified
T2 construct: JUNO, human; gene synthesised artificially (Integrated DNA technologies); also called JUNO Human; source: BHK-21 cells, transfected, on cells; not shown: mCherry, internal (just after the signal peptide), kept
T2 sequence (A6ND01 20-228): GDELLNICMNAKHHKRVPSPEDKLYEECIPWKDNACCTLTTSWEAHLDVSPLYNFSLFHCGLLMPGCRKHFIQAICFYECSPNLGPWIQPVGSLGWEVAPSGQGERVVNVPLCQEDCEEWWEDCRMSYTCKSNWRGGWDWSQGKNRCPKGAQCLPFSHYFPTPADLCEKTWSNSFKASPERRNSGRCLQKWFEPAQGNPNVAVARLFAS

mouse mCherry-JUNO = target: T1, mouse mCherry-JUNO; experiment: as above; settings: partners not purified

Binder	IZUMO1 accumulation (% of contacting cell pairs) (human JUNO) [%]	IZUMO1 accumulation (% of contacting cell pairs) (mouse mCherry-JUNO) [%]
B1	27	
B2	50	72
